Data taken from article PMC3992927 (Cancer discovery, 2014).

Columns and labels:
[1] = target: T1, myc epitope-tagged RNF31 Q584H (human, UniProt Q96EP0-1 1-1072, Q584H); assay: co-IP
T1 sequence (looked up): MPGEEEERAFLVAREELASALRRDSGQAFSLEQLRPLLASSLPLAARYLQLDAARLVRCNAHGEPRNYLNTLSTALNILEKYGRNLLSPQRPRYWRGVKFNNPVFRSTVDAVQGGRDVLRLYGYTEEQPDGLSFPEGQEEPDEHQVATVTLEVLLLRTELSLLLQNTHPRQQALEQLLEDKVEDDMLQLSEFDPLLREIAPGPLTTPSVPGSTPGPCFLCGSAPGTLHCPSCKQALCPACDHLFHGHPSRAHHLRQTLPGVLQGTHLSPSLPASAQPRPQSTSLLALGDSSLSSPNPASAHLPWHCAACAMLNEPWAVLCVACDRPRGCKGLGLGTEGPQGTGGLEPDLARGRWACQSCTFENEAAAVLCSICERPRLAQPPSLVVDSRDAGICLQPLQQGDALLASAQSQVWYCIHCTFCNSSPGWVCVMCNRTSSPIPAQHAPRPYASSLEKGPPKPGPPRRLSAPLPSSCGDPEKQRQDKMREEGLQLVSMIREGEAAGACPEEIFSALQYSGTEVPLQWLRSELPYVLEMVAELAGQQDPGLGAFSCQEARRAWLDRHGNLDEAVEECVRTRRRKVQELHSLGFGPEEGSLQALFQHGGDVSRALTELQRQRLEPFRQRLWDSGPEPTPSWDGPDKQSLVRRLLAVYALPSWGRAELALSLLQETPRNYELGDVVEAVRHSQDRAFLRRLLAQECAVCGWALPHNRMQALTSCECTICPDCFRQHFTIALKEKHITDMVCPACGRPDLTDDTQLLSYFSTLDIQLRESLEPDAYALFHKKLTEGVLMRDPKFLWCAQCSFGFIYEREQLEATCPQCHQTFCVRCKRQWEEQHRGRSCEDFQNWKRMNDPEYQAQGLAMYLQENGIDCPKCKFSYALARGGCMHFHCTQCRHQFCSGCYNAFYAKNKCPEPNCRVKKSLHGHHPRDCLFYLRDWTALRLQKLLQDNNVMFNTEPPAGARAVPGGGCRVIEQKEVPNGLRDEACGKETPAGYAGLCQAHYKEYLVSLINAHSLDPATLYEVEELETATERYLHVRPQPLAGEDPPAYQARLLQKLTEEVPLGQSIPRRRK

[2] = target: T2, myc epitope-tagged RNF31 Q622L (human, UniProt Q96EP0-1 1-1072, Q622L); assay: co-IP
T2 sequence (looked up): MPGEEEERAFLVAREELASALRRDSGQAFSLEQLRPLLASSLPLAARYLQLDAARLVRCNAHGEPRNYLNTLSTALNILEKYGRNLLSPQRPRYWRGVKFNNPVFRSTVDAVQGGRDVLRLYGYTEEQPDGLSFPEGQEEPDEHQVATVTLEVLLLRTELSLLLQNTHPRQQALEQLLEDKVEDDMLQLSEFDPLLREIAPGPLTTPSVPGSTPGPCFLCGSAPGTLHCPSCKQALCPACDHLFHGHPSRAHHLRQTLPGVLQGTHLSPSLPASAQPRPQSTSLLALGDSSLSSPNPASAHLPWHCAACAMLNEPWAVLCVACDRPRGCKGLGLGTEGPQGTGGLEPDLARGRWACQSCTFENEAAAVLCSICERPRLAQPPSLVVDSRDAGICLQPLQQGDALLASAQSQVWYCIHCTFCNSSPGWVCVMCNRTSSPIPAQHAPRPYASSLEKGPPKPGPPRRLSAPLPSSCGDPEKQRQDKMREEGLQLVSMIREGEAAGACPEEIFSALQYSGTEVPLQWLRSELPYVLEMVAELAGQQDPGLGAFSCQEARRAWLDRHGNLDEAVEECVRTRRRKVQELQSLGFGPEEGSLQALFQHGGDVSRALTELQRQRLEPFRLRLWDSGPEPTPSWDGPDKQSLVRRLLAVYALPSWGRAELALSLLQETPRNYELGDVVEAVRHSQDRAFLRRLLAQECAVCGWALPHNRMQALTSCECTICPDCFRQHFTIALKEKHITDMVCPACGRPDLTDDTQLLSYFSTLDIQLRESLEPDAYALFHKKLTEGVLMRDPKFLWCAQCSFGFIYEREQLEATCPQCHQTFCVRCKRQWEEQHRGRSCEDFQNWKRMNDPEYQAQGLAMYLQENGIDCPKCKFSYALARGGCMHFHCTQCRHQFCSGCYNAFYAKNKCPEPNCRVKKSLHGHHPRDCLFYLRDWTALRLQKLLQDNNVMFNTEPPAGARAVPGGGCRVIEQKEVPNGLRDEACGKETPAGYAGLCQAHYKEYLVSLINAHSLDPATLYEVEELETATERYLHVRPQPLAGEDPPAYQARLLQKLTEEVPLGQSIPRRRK

B1: RBCK1 (natural protein, human (endogenous in HBL1), UniProt Q9BYM8-1 1-510, looked up)
chain: MDEKTKKAEEMALSLTRAVAGGDEQVAMKCAIWLAEQRVPLSVQLKPEVSPTQDIRLWVSVEDAQMHTVTIWLTVRPDMTVASLKDMVFLDYGFPPVLQQWVIGQRLARDQETLHSHGVRQNGDSAYLYLLSARNTSLNPQELQRERQLRMLEDLGFKDLTLQPRGPLEPGPPKPGVPQEPGRGQPDAVPEPPPVGWQCPGCTFINKPTRPGCEMCCRARPEAYQVPASYQPDEEERARLAGEEEALRQYQQRKQQQQEGNYLQHVQLDQRSLVLNTEPAECPVCYSVLAPGEAVVLRECLHTFCRECLQGTIRNSQEAEVSCPFIDNTYSCSGKLLEREIKALLTPEDYQRFLDLGISIAENRSAFSYHCKTPDCKGWCFFEDDVNEFTCPVCFHVNCLLCKAIHEQMNCKEYQEDLALRAQNDVAARQTTEMLKVMLQQGEAMRCPQCQIVVQKKDGCDWIRCTVCHTEICWVTKGPRWGPGGPGDTSGGCRCRVNGIPCHPSCQNCH
fold co-immunoprecipitation relative to wild type RNF31 [1]: 1.4 fold
fold co-immunoprecipitation relative to wild type RNF31 [2]: 2.07 fold
